The values that follow come from patent US20260184782A1 (TWIST BIOSCIENCE, published 2026).

One experiment concerns the target T1, recombinant human TIGIT (human, UniProt Q495A1 22-141, limits assumed).
T1 construct: recombinant human TIGIT used in Carterra SPR; also called hTIGIT
T1 sequence (looked up): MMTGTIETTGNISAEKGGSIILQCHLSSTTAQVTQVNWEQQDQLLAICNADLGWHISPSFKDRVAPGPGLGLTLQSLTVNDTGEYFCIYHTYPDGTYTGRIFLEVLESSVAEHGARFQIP
As to the kind of experiment: SPR Carterra, average. The protocol: Binding affinities of VHH-Fc proteins to recombinant human TIGIT were measured by SPR using a Carterra instrument (Table 10A). […] Average values reported from measurements from 1-2 samples.

Another experiment addresses T2, human TIGIT-Fc (human, UniProt Q495A1 22-141, limits assumed).
T2 construct: not shown: Fc; not described
T2 sequence (looked up): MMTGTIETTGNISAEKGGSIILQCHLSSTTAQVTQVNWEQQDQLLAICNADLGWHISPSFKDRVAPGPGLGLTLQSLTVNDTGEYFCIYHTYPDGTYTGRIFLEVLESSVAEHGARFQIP
Briefly: CD155 competition ELISA, single point. Further: test concentration or dose not given here. On the procedure: TIGIT/CD155 inhibition of VHH-Fcs were assessed using an ELISA assay (Table 10B). Briefly, human TIGIT-Fc was coated on a plate & then incubated with VHH-Fcs and human CD155-biotin. Bound CD155-biotin was detected using a streptavidin-HRP conjugate visualized with TMB. Strong inhibitors from the single point screen were titrated to determine EC50 (Table 10C).

B1: TIGIT-SC143 (Fc fusion)
VHH: EVQLVESGGGLVQPGGSLRLSCAASGFTLGYYVMGWFRQAPGKEREFVAAISASGTLRAYADSVEGRFTISADNSKNTAYLQMNSLKPEDTAVYYCARAELGYSYGSVDGYWGQGTLVTVSS
notes: VHH-Fc fusion in assay
Turning to B1, in the experiment with recombinant human TIGIT, the Kd turned out to be 474 nM, the koff is 0.239 s⁻¹ and the kon came to 504000 M⁻¹ s⁻¹.

B2: TIGIT-SC3 (Fc fusion)
VHH: EVQLVESGGGLVQPGGSLRLSCAASGTFQRINAMGWFRQAPGKEREFVSTINWSGSNTYYADSVKGRFTISADNSKNTAYLQMNSLKPEDTAVYYCASSYSSSSGLGDIWGQGTLVTVSS
notes: VHH-Fc
Turning to B2, the “OD (450 nm)” value in the experiment with human TIGIT-Fc was determined as 0.748 OD.

B3: TIGIT-SC14 (Fc fusion)
VHH: EVQLVESGGGLVQPGGSLRLSCAASGSISSIHAMGWFRQAPGKEREFVATISRSGVGTFYADSVKGRFTISADNSKNTAYLQMNSLKPEDTAVYYCASSYSSSSGLGDIWGQGTLVTVSS
notes: VHH-Fc
Take B3: the “OD (450 nm)” value with human TIGIT-Fc was 0.61 OD.

B4: TIGIT-SC202 (Fc fusion)
VHH: EVQLVESGGGLVQPGGSLRLSCAASGFTFSPSWMGWFRQAPGKEREWVASVLRGGYTWYADSVKGRFTISADNSKNTAYLQMNSLKPEDTAVYYCTTDGGYSGIVGFAWGQGTLVTVSS
notes: VHH-Fc fusion in assay
For the molecule B4, in the experiment with recombinant human TIGIT, the Kd is 625 nM, the koff came to 0.0934 s⁻¹ and the kon is 93800 M⁻¹ s⁻¹.

B5: TIGIT-SC94 (Fc fusion)
VHH: EVQLVESGGGLVQPGGSLRLSCAASGSSFSAYAMGWFRQAPGKEREFVSLINWSSGKTIYADSVKGRFTISADNSKNTAYLQMNSLKPEDTAVYYCARVRIFNHVHRPSYYFDYWGQGTLVTVSS
notes: VHH-Fc fusion in assay
As to B5, in the experiment with recombinant human TIGIT, the Kd is 549 nM, the koff came to 0.027 s⁻¹ and the kon is 49200 M⁻¹ s⁻¹.

B6: TIGIT-SC181 (Fc fusion)
VHH: EVQLVESGGGLVQPGGSLRLSCAASGFTLSSNWMGWFRQAPGKEREFVASVLRGGYTWYADSVKGRFTISADNSKNTAYLQMNSLKPEDTAVYYCARDAYYYGLWGQGTLVTVSS
notes: VHH-Fc fusion in assay
For the molecule B6, in the experiment with recombinant human TIGIT, the Kd was found to be 393 nM, the dissociation rate constant (koff) came out at 0.168 s⁻¹ and the kon is 428000 M⁻¹ s⁻¹.

B7: TIGIT-SC8 (Fc fusion)
VHH: EVQLVESGGGLVQPGGSLRLSCAASGFAFSSYAMGWFRQAPGKEREFVARITWNGGSAYYADSVKGRFTISADNSKNTAYLQMNSLKPEDTAVYYCAAGATGWFDPWGQGTLVTVSS
notes: VHH-Fc
With B7, the “OD (450 nm)” value in the experiment with human TIGIT-Fc amounted to 0.817 OD.

B8: TIGIT-SC152 (Fc fusion)
VHH: EVQLVESGGGLVQPGGNLRLSCAASGSTFSKHHAMGWFRQAPGKEREFVAGIIRSGTLKAYADSVKGRFTISADNSKNTAYLQMNSLKPEDTAVYYCTRGRAARHNLWYFDLWGQGTLVTVSS
notes: VHH-Fc fusion in assay
In the case of B8, in the experiment with recombinant human TIGIT, the Kd was 1470 nM, the koff is 0.155 s⁻¹ and the kon amounted to 106000 M⁻¹ s⁻¹.

B9: TIGIT-SC95 (Fc fusion)
VHH: EVQLVESGGGLVQPGGSLRLSCAASGPTFSTNVMGWFRQAPGKEREFVSSIHWGGSSTVYADSVKGRFTISADNSKNTAYLQMNSLKPEDTAVYYCVTYSAYDFRNAWGQGTLVTVSS
notes: VHH-Fc
Regarding B9, the “OD (450 nm)” value with human TIGIT-Fc amounted to 0.613 OD.

B10: TIGIT-SC177 (Fc fusion)
VHH: EVQLVESGGGLVQPGGSLRLSCAASGFTFSPSWMGWFRQAPGKEREWVASVLRGGYTWYADSVKGRFTISADNSKNTAYLQMNSLKPEDTAVYYCATDRGPAMVFNLWGQGTLVTVSS
notes: VHH-Fc fusion in assay
As for B10, in the experiment with recombinant human TIGIT, the Kd was determined as 340 nM, the koff was determined as 0.00279 s⁻¹ and the kon was determined as 48600 M⁻¹ s⁻¹.

B11: TIGIT-SC7 (Fc fusion)
VHH: EVQLVESGGGLVQPGGSLRLSCAASGRSFSMYVMGWFRQAPGKEREGVSFISGSDGSTLYADSVKGRFTISADNSKNTAYLQMNSLKPEDTAVYYCARGSIAARPVFFDYWGQGTLVTVSS
notes: VHH-Fc
Regarding B11, in the experiment with human TIGIT-Fc, the “OD (450 nm)” value amounted to 0.735 OD.

B12: TIGIT-SC60 (Fc fusion)
VHH: EVQLVESGGGLVQPGGSLRLSCAASGFTFSPSWMGWFRQAPGKEREWVASVLRGGYTWYADSVKGRFTISADNSKNTAYLQMNSLKPEDTAVYYCARDDLDYWGQGTLVTVSS
notes: VHH-Fc
Turning to B12, the “OD (450 nm)” value with human TIGIT-Fc worked out at 0.349 OD.

B13: TIGIT-SC188 (Fc fusion)
VHH: EVQLVESGGGLVQPGGSLRLSCAASGNTFSGGFMGWFRQAPGKEREWVASVLRGGYTWYADSVKGRFTISADNSKNTAYLQMNSLKPEDTAVYYCTTDSLPGWGQGTLVTVSS
notes: VHH-Fc
As for B13, in the experiment with human TIGIT-Fc, the “OD (450 nm)” value came to 0.524 OD.

B14: TIGIT-SC141 (Fc fusion)
VHH: EVQLVESGGGLVQPGGSLRLSCAASGNAFSSSVMGWFRQAPGKEREFVAGIWRSGSLKAYADSVKGRFTISADNSKNTAYLQMNSLRPEDTAVYYCARAYVGMTTVTFDHWGQGTLVTVSS
notes: VHH-Fc fusion in assay
Consider B14, for which, in the experiment with recombinant human TIGIT, the Kd was determined as 903 nM, the koff amounted to 0.151 s⁻¹ and the kon was 167000 M⁻¹ s⁻¹.

B15: TIGIT-SC186 (Fc fusion)
VHH: EVQLVESGGGLVQPGGSLRLSCAASGNTFSGGFMGWFRQAPGKEREYVASVLRGGYTWYADSVKGRFTISADNSKNTTYLQMNSLKPEDTAVYYCTTDRGYNWNYDWGQGTLVTVSS
notes: VHH-Fc fusion in assay
In the case of B15, in the experiment with recombinant human TIGIT, the Kd came out at 170 nM, the koff stood at 0.005 s⁻¹ and the kon is 98700 M⁻¹ s⁻¹.

B16: TIGIT-SC148 (Fc fusion)
VHH: EVQLVESGGGLVQPGGSLRLSCAASGDIGSINAMGWFRQAPGKEREFVAGIWRSGNLKAYADSVKGRFTISADNSKNTAYLQMSSLKPEDTAVYYCARGNIVVVPAAFVIWFDPWGQGTLVTVSS
notes: VHH-Fc fusion in assay
With B16, in the experiment with recombinant human TIGIT, the Kd was determined as 1320 nM, the koff was 0.16 s⁻¹ and the kon was found to be 121000 M⁻¹ s⁻¹.

B17: TIGIT-SC2 (Fc fusion)
VHH: EVQLVESGGGLVQPGGSLRLSCAASGFTLSSNWMGWFRQAPGKEREMVAAIDWSGGSALYADSVKGRFTISADNSKNTAYLQMNSLKPEDTAVYYCAKDALSNSARFDHWGQGTLVTVSS
notes: VHH-Fc
Consider B17, for which the “OD (450 nm)” value with human TIGIT-Fc worked out at 0.407 OD.

B18: TIGIT-SC6 (Fc fusion)
VHH: EVQLVESGGGLVQPGGSLRLSCAASGNTFSGGFMGWFRQAPGKEREWVASVLRGGYTWYADSVKGRFTISADNSKNTAYLQMNSLKPEDTAVYYCAISPVAWHAKFDSWGQGTLVTVSS
notes: VHH-Fc
B18: the “OD (450 nm)” value in the experiment with human TIGIT-Fc was 0.558 OD.

B19: TIGIT-SC156 (Fc fusion)
VHH: EVQLVESGGGLVQPGGSLRLSCAASGNTFSGGFMGWFRQAPGKEREWVASVLRGGYTWYADSVKGRFTISADNSKNTAYLQMNSLKPEDTAVYYCTTEGYDFWSGYYDYWGQGTLVTVSS
notes: VHH-Fc
On to B19, for which, in the experiment with human TIGIT-Fc, the “OD (450 nm)” value is 0.701 OD.

B20: TIGIT-SC162 (Fc fusion)
VHH: EVQLVESGGGLVQPGGSLRLSCAASGNTFSGGFMGWFRQAPGKEREWVASVLRGGYTWYADSVKGRFTISADNSKNTAYLQMNSLKPEDTAVYYCTTDRAIGVRPLFDHWGQGTLVTVSS
notes: VHH-Fc
On to B20, for which the “OD (450 nm)” value with human TIGIT-Fc turned out to be 0.423 OD.

B21: TIGIT-SC5 (Fc fusion)
VHH: EVQLVESGGGLVQPGGSLRLSCAASGFAFGDSWMGWFRQAPGKEREWVASVLRGGYTWYADSVKGRFTISADNSKNTAYLQMNSLKPEDTAVYYCARESEGWFDPWGQGTLVTVSS
notes: VHH-Fc
In the case of B21, the “OD (450 nm)” value with human TIGIT-Fc is 0.564 OD.

B22: TIGIT-SC183 (Fc fusion)
VHH: EVQLVESGGGLVQPGGSLRLSCAASGFAFGDSWMGWFRQAPGKEREWVASVLRGGYTWYADSVKGRFTISADNSKNTAYLQMNSLKPEDTAVYYCAKDRSYSFDYWGQGTLVTVSS
notes: VHH-Fc
For B22, the “OD (450 nm)” value with human TIGIT-Fc was 0.5 OD.

B23: TIGIT-SC23 (Fc fusion)
VHH: EVQLVESGGGLVQPGGSLRLSCAASGFTLSSNWMGWFRQAPGKEREWVASVLRGGYTWYADSVKGRFTISADNSKNTAYLQMNSLKPEDTAVYYCARERLGWFDPWGQGTLVTVSS
notes: VHH-Fc
As for B23, the “OD (450 nm)” value with human TIGIT-Fc was found to be 0.424 OD.

B24: TIGIT-SC4 (Fc fusion)
VHH: EVQLVESGGGLVQPGGSLRLSCAASGSIDRINAMGWFRQATGKEREWVASVLRGGYTWYADSVKGRFTISADNSKNTAYLQMNSLKPEDTAVYYCARDSYSTSFWFDPWGQGTLVTVSS
notes: VHH-Fc
On to B24, for which the “OD (450 nm)” value with human TIGIT-Fc stood at 0.579 OD.

B25: TIGIT-SC1 (Fc fusion)
VHH: EVQLVESGGGLVQPGGSLRLSCAASGFTLNDYAMGWFRQAPGKERELVAWIARYDGSTLYADSVKGRFTISADNSKNTAYLQMNSLKPEDTAVYYCARVDWALNAAPFDYWGQGTLVTVSS
notes: VHH-Fc
Take B25: the “OD (450 nm)” value with human TIGIT-Fc amounted to 0.649 OD.

B26: TIGIT-SC199 (Fc fusion)
VHH: EVQLVESGGGLVQPGGSLRLSCAASGFSSAQYAMGWFRQAPGKERELVASIDSEGRTNYADSVKGRFTISADNSKNTAYLQMNSLKPEDTAVYYCTRDGGFDPWGQGTLVTVSS
notes: VHH-Fc fusion in assay
Take B26: in the experiment with recombinant human TIGIT, the Kd stood at 321 nM, the koff was determined as 0.128 s⁻¹ and the kon turned out to be 399000 M⁻¹ s⁻¹.

B27: TIGIT-SC105 (Fc fusion)
VHH: EVQLVESGGGLVQPGGSLRLSCAASGFAFSRYGMGWFRQAPGKERELVATIGWSGSSTFYADSVKGRFTISADNSKNTAYLQMNSLKPEDTAVYYCARDGGPYYYGLDVWGQGTLVTVSS
notes: VHH-Fc fusion in assay
For B27, in the experiment with recombinant human TIGIT, the Kd stood at 189 nM, the koff turned out to be 0.0116 s⁻¹ and the kon was 61600 M⁻¹ s⁻¹.

B28: TIGIT-SC146 (Fc fusion)
VHH: EVQLVESGGGLVQPGGGLRLSCAASGFTLENNMMGWFRQAPGKEREFVAAISASGTLRAYADSVKGRFTISADNSKNTAYLQMNSLKPEDTAVYYCAKGGQAGPMAFYFDYWGQGTLVTVSS
notes: VHH-Fc fusion in assay
B28: in the experiment with recombinant human TIGIT, the Kd was 1060 nM, the koff turned out to be 0.24 s⁻¹ and the kon was 226000 M⁻¹ s⁻¹.
